Measurements reported in patent US20200277401A1 (PANGEN BIOTECH, published 2020).

Biological target: T1, recombinant coagulation factor VIII protein (Homo sapiens (Human), UniProt P00451 20-2351)
T1 construct: Recombinant protein isolated from a cell culture solution; also called recombinant coagulation factor FVIII; FVIII
T1 sequence: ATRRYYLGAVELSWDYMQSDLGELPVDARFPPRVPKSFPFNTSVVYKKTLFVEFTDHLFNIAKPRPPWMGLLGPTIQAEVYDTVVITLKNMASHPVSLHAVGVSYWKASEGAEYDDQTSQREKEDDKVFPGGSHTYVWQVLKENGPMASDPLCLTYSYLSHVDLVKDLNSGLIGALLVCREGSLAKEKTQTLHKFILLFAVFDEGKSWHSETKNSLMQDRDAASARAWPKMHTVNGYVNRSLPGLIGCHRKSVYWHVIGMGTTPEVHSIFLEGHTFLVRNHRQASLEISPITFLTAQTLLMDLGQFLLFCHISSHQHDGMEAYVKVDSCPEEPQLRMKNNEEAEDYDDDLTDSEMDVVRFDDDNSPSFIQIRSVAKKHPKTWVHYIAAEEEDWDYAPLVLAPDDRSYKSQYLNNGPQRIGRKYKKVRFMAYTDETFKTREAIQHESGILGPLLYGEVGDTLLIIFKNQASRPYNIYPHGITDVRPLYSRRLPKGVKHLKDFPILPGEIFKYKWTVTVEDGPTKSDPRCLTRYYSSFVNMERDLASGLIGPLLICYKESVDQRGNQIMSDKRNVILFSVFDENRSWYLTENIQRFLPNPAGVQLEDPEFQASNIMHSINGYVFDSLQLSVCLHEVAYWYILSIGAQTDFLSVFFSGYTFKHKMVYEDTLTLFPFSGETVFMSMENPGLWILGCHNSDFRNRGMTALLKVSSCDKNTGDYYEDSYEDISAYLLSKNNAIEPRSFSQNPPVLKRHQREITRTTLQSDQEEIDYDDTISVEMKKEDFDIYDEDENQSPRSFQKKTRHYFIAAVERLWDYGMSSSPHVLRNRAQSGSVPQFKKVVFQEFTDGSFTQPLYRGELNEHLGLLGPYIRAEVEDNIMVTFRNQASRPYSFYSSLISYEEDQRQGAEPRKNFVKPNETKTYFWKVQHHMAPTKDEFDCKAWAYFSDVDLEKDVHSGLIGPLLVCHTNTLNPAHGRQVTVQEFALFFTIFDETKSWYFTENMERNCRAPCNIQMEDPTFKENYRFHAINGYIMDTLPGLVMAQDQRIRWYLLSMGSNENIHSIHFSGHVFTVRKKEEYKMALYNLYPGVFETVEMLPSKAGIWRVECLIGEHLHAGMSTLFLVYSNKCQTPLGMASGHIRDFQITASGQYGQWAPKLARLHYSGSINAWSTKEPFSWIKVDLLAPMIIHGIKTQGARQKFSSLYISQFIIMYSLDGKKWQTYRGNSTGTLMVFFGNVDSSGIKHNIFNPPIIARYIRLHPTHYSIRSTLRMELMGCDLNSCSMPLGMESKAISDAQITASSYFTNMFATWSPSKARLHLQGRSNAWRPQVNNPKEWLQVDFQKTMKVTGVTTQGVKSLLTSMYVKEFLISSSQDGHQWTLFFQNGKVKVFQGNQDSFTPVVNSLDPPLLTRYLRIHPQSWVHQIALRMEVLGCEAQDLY
Assay: SPR, Biacore T200, FVIII immobilised on CM5 chip, antibody as analyte, 1:1 model
Method: The kinetic affinity (Ka, Kd, KD) between the purified antibody protein and the recombinant coagulation factor FVIII protein through antigen-antibody reaction was measured by a SPR (surface plasmon resonance) method.
The CM5 chip was mounted on a Biacore T200 instrument, and the recombinant coagulation factor FVIII protein as a ligand was diluted in a 10 mM sodium acetate buffer (pH 5.0) and injected into a sample channel for 10 minutes for immobilization. The purified antibody protein, as the analyte, was prepared at a concentration of 2 μM by diluting with a buffer and was then serially diluted to ten concentrations (0.0039, 0.0078, 0.015, 0.031, 0.062, 0.125, 0.25, 0.5, 1, 2 μM). Association and dissociation times were set to 3 minutes and 4 minutes, respectively, and association and dissociation were measured.
BIAevaluation analysis software was used to analyze the kinetic affinity of the purified antibody protein and the recombinant coagulation factor FVIII protein. The association force, dissociation force and dissociation constant were calculated as follows by applying ten concentrations of association/dissociation data to a 1:1 kinetic binding model (A+B↔AB).

B1: anti-FVIII antibody (purified antibody protein produced by the ADBA1013-14 CHO cell line from the heavy and light chain genes of hybridoma clone 3F6-2-5) (antibody, mouse IgG1, V domains shown)
VH: EVKIEESGGGLVQPGGSMKLSCAASGFTFSDAWMDWVRQSPEKGLEWVAEIRSKAKNHATNYAESVKGRFTISRDDSKSRVYLQMNTLRAEDTGIYYCTNYHFWGPGTTLTVS
VL: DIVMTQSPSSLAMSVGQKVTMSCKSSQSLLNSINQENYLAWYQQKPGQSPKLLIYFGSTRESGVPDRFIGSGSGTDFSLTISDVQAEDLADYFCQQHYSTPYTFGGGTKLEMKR
modifications: N-glycan on Asparagine No. 288 of the heavy chain
notes: The full chains are in the listing under one of these numberings; The hybridoma antibody 3F6-2-5 and the recombinant CHO product are treated as one molecule (same genes); also called purified anti-FVIII antibody protein; anti-coagulation factor VIII antibody
- Kd: 55.3 nM
- koff: 0.00068 s⁻¹
- kon: 12300 M⁻¹ s⁻¹
